For this test, the target named is ATP synthase c-subunit (c10-ring) (Polytomella sp.). Description: cryo-EM structure.

Take “ATP synthase c-subunit (c10-ring) (natural protein)”: the stoichiometry N – broadly, the number of molecules, sites or subunits per partner or assembly – came to 10.

For the origin of these results see doi:10.1101/543108.
